Assay [1] deals with recombinant mouse CD226-his (50232-M08H; SinoBiological) (mouse) (UniProt Q8K4F0). As to the kind of experiment: SPR (Biacore T200), single-cycle kinetics, mCD226-his captured by anti-His, 1:1 Langmuir fit. (In general: Surface plasmon resonance follows binding to a sensor surface in real time, without labels.)
The target in assay [2] is recombinant mouse TIGIT-Fc-his (771808; Biolegend) (mouse) (UniProt P86176). Put plainly: SPR (Biacore T200), single-cycle kinetics, mTIGIT-Fc-his captured by anti-His, 1:1 Langmuir fit.
Chain of UniProt P86176 (P86176 29-148 limits assumed): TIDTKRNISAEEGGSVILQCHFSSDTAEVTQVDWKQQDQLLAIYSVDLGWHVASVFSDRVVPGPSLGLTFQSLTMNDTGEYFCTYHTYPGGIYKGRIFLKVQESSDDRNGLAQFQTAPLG
Assay [3] concerns the target recombinant mouse CD96-his (788806; Biolegend) (mouse) (UniProt Q3U0X8). As to the kind of experiment: SPR (Biacore T200), single-cycle kinetics, mCD96-his captured by anti-His, 1:1 Langmuir fit.
Chain of UniProt Q3U0X8 (Q3U0X8 22-536 limits assumed): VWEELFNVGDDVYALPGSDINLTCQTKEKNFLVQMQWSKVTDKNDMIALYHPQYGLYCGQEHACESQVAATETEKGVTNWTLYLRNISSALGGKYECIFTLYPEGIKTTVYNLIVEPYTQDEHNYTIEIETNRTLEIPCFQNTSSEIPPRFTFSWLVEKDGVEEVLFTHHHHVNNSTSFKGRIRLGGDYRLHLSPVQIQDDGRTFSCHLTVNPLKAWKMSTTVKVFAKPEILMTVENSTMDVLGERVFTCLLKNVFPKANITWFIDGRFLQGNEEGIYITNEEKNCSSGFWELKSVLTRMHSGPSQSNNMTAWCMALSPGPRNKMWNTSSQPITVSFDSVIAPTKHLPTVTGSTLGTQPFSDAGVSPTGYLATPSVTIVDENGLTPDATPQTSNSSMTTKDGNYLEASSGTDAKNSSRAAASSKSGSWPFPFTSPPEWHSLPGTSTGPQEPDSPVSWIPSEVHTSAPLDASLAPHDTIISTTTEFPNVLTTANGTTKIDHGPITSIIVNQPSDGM

Chain of UniProt Q8K4F0 (Q8K4F0 19-254 limits assumed, stated change not applied): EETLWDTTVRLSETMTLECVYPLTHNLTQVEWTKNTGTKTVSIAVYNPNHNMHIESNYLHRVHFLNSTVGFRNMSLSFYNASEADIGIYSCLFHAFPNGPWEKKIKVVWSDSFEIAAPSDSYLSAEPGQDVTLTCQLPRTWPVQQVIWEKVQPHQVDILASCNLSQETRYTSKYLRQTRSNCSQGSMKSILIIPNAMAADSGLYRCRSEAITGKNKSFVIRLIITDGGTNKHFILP

As to “PVR-Fc (786608; Biolegend), full-length mouse PVR ECD-Fc (Fc fusion)”, the values for the Kd in assay [1], in assay [2] and in assay [3] were 0.83 nM, 2.26 nM and 4.07 nM, respectively. The values for the koff in assay [2] and in assay [3] were 0.0646 s⁻¹ and 0.00455 s⁻¹, respectively. The kon in assay [2] was 2.25e+07 M⁻¹ s⁻¹; in assay [3], 1.17e+06 M⁻¹ s⁻¹.

For orientation: Kd means the free concentration of one partner at which half of the binding sites on the other are occupied at equilibrium, for simple one-to-one binding. What is called koff is the rate constant with which the complex falls apart. The kon is the second-order rate constant of association.

The record behind these values is US20240309052A1.
